Positions count from the first letter of the chain named.
B1: AB-007028 (antibody, V domains shown)
VH: QMQLVESGGGVVQPGRSLRLSCAASGFTFSTYAMHWVRQAPGQGLQWVAVISYHSTNKYYEDSVRGRFTISRDNSKNTLYLQMNSLRAEDTAVYYCARDGYSSSFFDFWGQGTLVTVSS
VL: DIQMTQSPSTLSASVGDRVTITCRASQSISRWLAWYQQQPGKAPKLLMSGASVLESGVPSRFSGSGSGTEFTLTISSLQPDDFATYYCQHYNSYFVTFGQGTKVEIK
B2: AB-007066 (antibody, V domains shown)
VH: B1 VH with A23T, A40S
VL: B1 VL with T20A, G50Q
B3: AB-007063 (antibody, V domains shown)
VH: B1 VH with A23T, A40S
VL: B1 VL with T20A, S49A
B4: AB-007073 (antibody, V domains shown)
VH: B1 VH with A23T, A40S
VL: B1 VL with T20A, Y94H
B5: AB-007034 (antibody, V domains shown)
VH: B1 VH with M2V, Q46E, E61A
VL: B1 VL with M48I
B6: AB-007064 (antibody, V domains shown)
VH: B1 VH with A23T, A40S
VL: B1 VL with T20A, S49T
B7: AB-007067 (antibody, V domains shown)
VH: B1 VH with A23T, A40S
VL: B1 VL with T20A, G50S
B8: AB-007032 (antibody, V domains shown)
VH: B1 VH with M2V
VL: B1 VL with M48I
B9: AB-007047 (antibody, V domains shown)
VH: B1 VH with A23T, T31N, A40S
VL: B1 VL with T20A
B10: AB-007062 (antibody, V domains shown)
VH: B1 VH with A23T, A40S
VL: B1 VL with T20A, R31S
B11: AB-007050 (antibody, V domains shown)
VH: B1 VH with A23T, A40S, Y53Q
VL: B1 VL with T20A
B12: AB-007068 (antibody, V domains shown)
VH: B1 VH with A23T, A40S
VL: B1 VL with T20A, G50L
B13: AB-007060 (antibody, V domains shown)
VH: B1 VH with A23T, A40S, F105Y
VL: B1 VL with T20A
B14: AB-007038 (antibody, V domains shown)
VH: B1 VH with A23T, A40S, F108Y
VL: B1 VL with T20A
B15: AB-007030 (antibody, V domains shown)
VH: B1 VH with A23T, A40S, Q46E, E61A
VL: B1 VL with T20A
B16: AB-007042 (antibody, V domains shown)
VH: B1 VH with A23T, A40S
VL: B1 VL with T20A, S28D
B17: AB-007036 (antibody, V domains shown)
VH: B1 VH with A23T, A40S, H54D
VL: B1 VL with T20A
B18: AB-007052 (antibody, V domains shown)
VH: B1 VH with A23T, A40S, T56N
VL: B1 VL with T20A
B19: AB-007058 (antibody, V domains shown)
VH: B1 VH with A23T, A40S, S103T
VL: B1 VL with T20A
B20: AB-007059 (antibody, V domains shown)
VH: B1 VH with A23T, A40S, S104T
VL: B1 VL with T20A
B21: AB-007033 (antibody, V domains shown)
VH: B1 VH with Q46E, E61A
VL: B1 VL
B22: AB-007045 (antibody, V domains shown)
VH: B1 VH with A23T, A40S, G100A
VL: B1 VL with T20A
B23: AB-007040 (antibody, V domains shown)
VH: B1 VH with A23T, A40S
VL: B1 VL with T20A, F95Y
B24: AB-007057 (antibody, V domains shown)
VH: B1 VH with A23T, A40S, S102H
VL: B1 VL with T20A
B25: AB-007031 (antibody, V domains shown)
VH: B1 VH with A23T, A40S
VL: B1 VL with T20A, M48I
B26: AB-007070 (antibody, V domains shown)
VH: B1 VH with A23T, A40S
VL: B1 VL with T20A, G50A
B27: AB-007071 (antibody, V domains shown)
VH: B1 VH with A23T, A40S
VL: B1 VL with T20A, V53S
B28: AB-007037 (antibody, V domains shown)
VH: B1 VH with A23T, A40S, R65K
VL: B1 VL with T20A
B29: AB-007051 (antibody, V domains shown)
VH: B1 VH with A23T, A40S, T56R
VL: B1 VL with T20A
B30: AB-007053 (antibody, V domains shown)
VH: B1 VH with A23T, A40S, N57Q
VL: B1 VL with T20A
B31: AB-007055 (antibody, V domains shown)
VH: B1 VH with A23T, A40S, S102T
VL: B1 VL with T20A
B32: AB-007069 (antibody, V domains shown)
VH: B1 VH with A23T, A40S
VL: B1 VL with T20A, G50V
B33: AB-007044 (antibody, V domains shown)
VH: B1 VH with A23T, A40S, D62E
VL: B1 VL with T20A
B34: AB-007039 (antibody, V domains shown)
VH: B1 VH with A23T, A40S
VL: B1 VL with T20A, F95S
B35: AB-007049 (antibody, V domains shown)
VH: B1 VH with A23T, A40S, Y53N, S55E
VL: B1 VL with T20A
B36: AB-007061 (antibody, V domains shown)
VH: B1 VH with A23T, A40S
VL: B1 VL with T20A, S30D
B37: AB-007072 (antibody, V domains shown)
VH: B1 VH with A23T, A40S
VL: B1 VL with T20A, V53N
B38: AB-007048 (antibody, V domains shown)
VH: B1 VH with A23T, A33S, A40S
VL: B1 VL with T20A
B39: AB-007043 (antibody, V domains shown)
VH: B1 VH with A23T, A40S
VL: B1 VL with T20A, S56D
B40: AB-007041 (antibody, V domains shown)
VH: B1 VH with A23T, T31D, A40S
VL: B1 VL with T20A
B41: AB-007056 (antibody, V domains shown)
VH: B1 VH with A23T, A40S, S102Q
VL: B1 VL with T20A
B42: AB-007046 (antibody, V domains shown)
VH: B1 VH with A23T, A40S
VL: B1 VL with T20A, N92Y
B43: AB-007065 (antibody, V domains shown)
VH: B1 VH with A23T, A40S
VL: B1 VL with T20A, G50K
B44: AB-007035 (antibody, V domains shown)
VH: B1 VH with A23T, T31S, A40S
VL: B1 VL with T20A
B45: AB-007074 (antibody, V domains shown)
VH: B1 VH
VL: B1 VL with F95Y
B46: AB-007054 (antibody, V domains shown)
VH: B1 VH with A23T, A40S, S102A
VL: B1 VL with T20A

biological target: T1, CSP Protein (Plasmodium falciparum, UniProt Q7K740 19-374); experiment: SPR, antibody on chip;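 further: antibodies immobilized on a Carterra chip, directly or via anti-human Fc capture, at two spots each, with CSP flowed over at 4-5 concentrations peaking at 0.5-8 µg/mL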
T1 construct: also called circumsporozoite protein; complete CSP protein
T1 sequence (Q7K740 19-374 limits assumed): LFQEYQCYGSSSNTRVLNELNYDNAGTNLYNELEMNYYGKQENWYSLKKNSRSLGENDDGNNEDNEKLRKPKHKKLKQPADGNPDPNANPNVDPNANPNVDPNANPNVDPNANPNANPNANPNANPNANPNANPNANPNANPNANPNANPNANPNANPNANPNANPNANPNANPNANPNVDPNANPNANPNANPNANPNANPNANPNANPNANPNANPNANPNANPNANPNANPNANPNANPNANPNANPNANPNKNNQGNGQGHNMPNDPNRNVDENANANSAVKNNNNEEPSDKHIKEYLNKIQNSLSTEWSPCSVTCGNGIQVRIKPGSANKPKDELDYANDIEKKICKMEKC
Description: For SPR, each antibody was either directly coupled to a Carterra Chip or coupled using a goat anti-human Fc antibody. The uncoupled antibodies were washed off and various concentration gradients of the targets were flowed over the antibodies, where the highest concentration of each target was in the range 0.5-8 μg/mL. Each antibody was immobilized in two different locations on the chip to allow for duplicate measurements. The affinity for each antibody-target combination was determined using 4-5 target concentrations in Mathematica software. If variation between the two duplicates was >3-fold, the antibody-target measurement was repeated.

| Binder | Kd [nM] |
| --- | --- |
| B1 | 0.0457 |
| B2 | 0.376 |
| B3 | 0.0524 |
| B4 | 0.0816 |
| B5 | 0.0824 |
| B6 | 0.556 |
| B7 | 0.0877 |
| B8 | 0.0469 |
| B9 | 0.175 |
| B10 | 0.0849 |
| B11 | 0.147 |
| B12 | 0.152 |
| B13 | 0.199 |
| B14 | 0.029 |
| B15 | 0.132 |
| B16 | 0.034 |
| B17 | 0.0967 |
| B18 | 0.0261 |
| B19 | 0.149 |
| B20 | 1.08 |
| B21 | 0.0408 |
| B22 | 0.284 |
| B23 | 0.0447 |

| Binder | Kd [nM] |
| --- | --- |
| B24 | 0.153 |
| B25 | 0.0496 |
| B26 | 0.177 |
| B27 | 0.0683 |
| B28 | 0.0346 |
| B29 | 0.0414 |
| B30 | 0.298 |
| B31 | 0.374 |
| B32 | 0.174 |
| B33 | 0.0319 |
| B34 | 0.106 |
| B35 | 0.152 |
| B36 | 0.0504 |
| B37 | 0.194 |
| B38 | 0.437 |
| B39 | 0.0426 |
| B40 | 0.0439 |
| B41 | 0.042 |
| B42 | 0.0364 |
| B43 | 0.454 |
| B44 | 0.0513 |
| B45 | 0.0415 |
| B46 | 0.17 |
